Among the data in publication PMC8198134, “Structural Basis for the Diminished Ligand Binding and Catalytic Ability of Human Fetal-Specific CYP3A7” (International Journal of Molecular Sciences, 2021) are Km, kcat and kcat/Km values, retold here.

Substrate in this data set: O=c1cc(C(F)(F)F)c2ccc(OCc3ccccc3)cc2o1
Briefly: purified protein. The class given is biochemical, Homo sapiens. As to conditions: heme.

B1: CYP3A7mut (Homo sapiens; C77G/K244E/K421A/K422A/K424A/R69G) (protein)
chain: YLYGTRTHGLFKKLGIPGPTPLPFLGNALSFRKGYWTFDMECYKKYGKVWGIYDGQQPMLAITDPDMIKTVLVKECYSVFTNRRPFGPVGFMKNAISIAEDEEWKRIRSLLSPTFTSGKLKEMVPIIAQYGDVLVRNLRREAETGKPVTLKHVFGAYSMDVITSTSFGVSIDSLNNPQDPFVENTKKLLRFNPLDPFVLSIKVFPFLTPILEALNITVFPREVISFLTKSVKQIKEGRLKETQKHRVDFLQLMIDSQNSKDSETHKALSDLELMAQSIIFIFAGYETTSSVLSFIIYELATHPDVQQKVQKEIDTVLPNKAPPTYDTVLQLEYLDMVVNETLRLFPVAMRLERVCKKDVEINGMFIPKGVVVMIPSYVLHHDPKYWTEPEKFLPERFSAANADNIDPYIYTPFGSGPRNCIGMRFALVNMKLALVRVLQNFSFKPCKETQIPLKLRFGGLLLTEKPIVLKAESRDETVSGA
notes: Δ3-22 (lacking the membrane tether, residues 3-22), C-terminal 4-histidine tag
As for B1, the Km (usually the substrate concentration at which the rate is half of its maximum) is 11 ± 1 µM; the kcat (commonly the number of substrate molecules converted per active site and unit of time at saturation) worked out at 0.000567 ± 8.33e-05 s⁻¹; the kcat/Km (usually the second-order rate constant that governs catalysis at low substrate concentration) stood at 51.7 M⁻¹ s⁻¹.
